Data: article PMC3858360

Target: human Myo5a globular domain, Myo5a (1467–1855) (human) (UniProt Q9Y4I1)
Assay: SPR; Biacore 3000, 25°C; Myo5a GD covalently immobilised on a CM5 chip (50–100 RU); steady-state binding with a multi-injection protocol, HMM 0–413 nM; 20 mM MOPS-KOH pH 7.0, 0.1 M NaCl, 2 mM MgCl2, 0.5 mM EGTA, 10 µM Calmodulin, 1 mM TCEP

UniProt Q9Y4I1, sequence (Q9Y4I1 1467-1855): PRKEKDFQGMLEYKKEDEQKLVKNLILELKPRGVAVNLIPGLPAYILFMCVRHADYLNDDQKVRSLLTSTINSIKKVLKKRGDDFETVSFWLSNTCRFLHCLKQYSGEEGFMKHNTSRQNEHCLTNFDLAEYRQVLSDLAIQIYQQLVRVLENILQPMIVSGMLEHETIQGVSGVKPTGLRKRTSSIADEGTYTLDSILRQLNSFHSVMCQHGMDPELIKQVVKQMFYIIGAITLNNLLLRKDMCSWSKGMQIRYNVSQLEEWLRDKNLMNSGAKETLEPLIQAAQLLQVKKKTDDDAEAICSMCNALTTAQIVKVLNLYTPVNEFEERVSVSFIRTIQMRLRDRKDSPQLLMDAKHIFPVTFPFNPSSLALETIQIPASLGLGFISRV

In the case of “murine Myo5a HMM complex: Myo5a (1–1105) C-terminally fused to GCN4-Flag, coexpressed with essential light chains and calmodulins (from UniProt Q99104 1-1105; P0DP26 1-149)”, the Kd is reported as 30 nM.
